The numbers were not newly measured in publication PMC5023690, which cites them from elsewhere.

Series [1] deals with ONE-GC M836-C1110 (Rattus norvegicus) (UniProt P51839). As to the kind of experiment: SPR; given as Ka. A general note: In SPR one partner is held on a chip, and binding of the other changes the refractive index at the surface.
Series [2] has the same target. As to the kind of experiment: SPR.

Sequence of UniProt P51839 (P51839 836-1110): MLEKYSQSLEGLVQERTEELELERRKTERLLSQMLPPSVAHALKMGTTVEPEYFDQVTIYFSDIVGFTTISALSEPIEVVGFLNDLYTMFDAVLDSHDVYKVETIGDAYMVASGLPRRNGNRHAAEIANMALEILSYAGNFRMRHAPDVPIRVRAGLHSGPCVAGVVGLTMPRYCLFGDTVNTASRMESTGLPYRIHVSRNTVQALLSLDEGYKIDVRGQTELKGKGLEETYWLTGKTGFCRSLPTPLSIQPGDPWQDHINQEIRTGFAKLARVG

As a reminder, the Kd is the concentration at which binding is half-saturated. Turning to Frq (frequenin) (from UniProt P62166), the figures for the equilibrium dissociation constant (Kd) in series [1] and in series [2] were 426 nM and 430 nM, respectively.
